Measurements reported in US20250368745A1 (published 2025).

T1: human IL-18BP (human, UniProt O95998 31-194)
T1 construct: UniProt printed as 095998; also called hIL-18BP
T1 sequence: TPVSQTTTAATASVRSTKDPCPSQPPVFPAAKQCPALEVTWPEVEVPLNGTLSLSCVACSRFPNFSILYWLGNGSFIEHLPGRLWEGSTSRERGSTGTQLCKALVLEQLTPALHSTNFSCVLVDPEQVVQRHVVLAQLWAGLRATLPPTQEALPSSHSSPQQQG

B1: SA301a LC-S93L (antibody, V domains shown)
VH: QVQLQESGPGLVKPSQTLSLTCTVSGYSITSDYNSHWIRQPPGKGLEWIGYIHYSGSTNYNPSLKSRVTISRDTSKNQFSLKLSSVTAADTAVYYCARNYGSIYVNYFDYWGQGTLVTVSS
VL: EIVLTQSPATLSLSPGERATLSCSASSSVSYMYWYQQKPGQAPRPLIYRTSNLASGIPARFSGSGSGTDFTLTISSLEPEDFAVYYCQQYHLYPTFGGGTKVEIK
B2: SA301a LC-Y94I (antibody, V domains shown)
VH: QVQLQESGPGLVKPSQTLSLTCTVSGYSITSDYNSHWIRQPPGKGLEWIGYIHYSGSTNYNPSLKSRVTISRDTSKNQFSLKLSSVTAADTAVYYCARNYGSIYVNYFDYWGQGTLVTVSS
VL: EIVLTQSPATLSLSPGERATLSCSASSSVSYMYWYQQKPGQAPRPLIYRTSNLASGIPARFSGSGSGTDFTLTISSLEPEDFAVYYCQQYHSIPTFGGGTKVEIK
B3: SA301a LC-P95A (antibody, V domains shown)
VH: QVQLQESGPGLVKPSQTLSLTCTVSGYSITSDYNSHWIRQPPGKGLEWIGYIHYSGSTNYNPSLKSRVTISRDTSKNQFSLKLSSVTAADTAVYYCARNYGSIYVNYFDYWGQGTLVTVSS
VL: EIVLTQSPATLSLSPGERATLSCSASSSVSYMYWYQQKPGQAPRPLIYRTSNLASGIPARFSGSGSGTDFTLTISSLEPEDFAVYYCQQYHSYATFGGGTKVEIK
B4: SA301a LC-P95N (antibody, V domains shown)
VH: QVQLQESGPGLVKPSQTLSLTCTVSGYSITSDYNSHWIRQPPGKGLEWIGYIHYSGSTNYNPSLKSRVTISRDTSKNQFSLKLSSVTAADTAVYYCARNYGSIYVNYFDYWGQGTLVTVSS
VL: EIVLTQSPATLSLSPGERATLSCSASSSVSYMYWYQQKPGQAPRPLIYRTSNLASGIPARFSGSGSGTDFTLTISSLEPEDFAVYYCQQYHSYNTFGGGTKVEIK
B5: SA301a LC-P95Y (antibody, V domains shown)
VH: QVQLQESGPGLVKPSQTLSLTCTVSGYSITSDYNSHWIRQPPGKGLEWIGYIHYSGSTNYNPSLKSRVTISRDTSKNQFSLKLSSVTAADTAVYYCARNYGSIYVNYFDYWGQGTLVTVSS
VL: EIVLTQSPATLSLSPGERATLSCSASSSVSYMYWYQQKPGQAPRPLIYRTSNLASGIPARFSGSGSGTDFTLTISSLEPEDFAVYYCQQYHSYYTFGGGTKVEIK
B6: SA301a LC-T96Y (antibody, V domains shown)
VH: QVQLQESGPGLVKPSQTLSLTCTVSGYSITSDYNSHWIRQPPGKGLEWIGYIHYSGSTNYNPSLKSRVTISRDTSKNQFSLKLSSVTAADTAVYYCARNYGSIYVNYFDYWGQGTLVTVSS
VL: EIVLTQSPATLSLSPGERATLSCSASSSVSYMYWYQQKPGQAPRPLIYRTSNLASGIPARFSGSGSGTDFTLTISSLEPEDFAVYYCQQYHSYPYFGGGTKVEIK
B7: SA301a LC-S93K (antibody, V domains shown)
VH: QVQLQESGPGLVKPSQTLSLTCTVSGYSITSDYNSHWIRQPPGKGLEWIGYIHYSGSTNYNPSLKSRVTISRDTSKNQFSLKLSSVTAADTAVYYCARNYGSIYVNYFDYWGQGTLVTVSS
VL: EIVLTQSPATLSLSPGERATLSCSASSSVSYMYWYQQKPGQAPRPLIYRTSNLASGIPARFSGSGSGTDFTLTISSLEPEDFAVYYCQQYHKYPTFGGGTKVEIK
B8: SA301a LC-P95K (antibody, V domains shown)
VH: QVQLQESGPGLVKPSQTLSLTCTVSGYSITSDYNSHWIRQPPGKGLEWIGYIHYSGSTNYNPSLKSRVTISRDTSKNQFSLKLSSVTAADTAVYYCARNYGSIYVNYFDYWGQGTLVTVSS
VL: EIVLTQSPATLSLSPGERATLSCSASSSVSYMYWYQQKPGQAPRPLIYRTSNLASGIPARFSGSGSGTDFTLTISSLEPEDFAVYYCQQYHSYKTFGGGTKVEIK
B9: SA301a LC-T96D (antibody, V domains shown)
VH: QVQLQESGPGLVKPSQTLSLTCTVSGYSITSDYNSHWIRQPPGKGLEWIGYIHYSGSTNYNPSLKSRVTISRDTSKNQFSLKLSSVTAADTAVYYCARNYGSIYVNYFDYWGQGTLVTVSS
VL: EIVLTQSPATLSLSPGERATLSCSASSSVSYMYWYQQKPGQAPRPLIYRTSNLASGIPARFSGSGSGTDFTLTISSLEPEDFAVYYCQQYHSYPDFGGGTKVEIK
B10: SA301a LC-P95F (antibody, V domains shown)
VH: QVQLQESGPGLVKPSQTLSLTCTVSGYSITSDYNSHWIRQPPGKGLEWIGYIHYSGSTNYNPSLKSRVTISRDTSKNQFSLKLSSVTAADTAVYYCARNYGSIYVNYFDYWGQGTLVTVSS
VL: EIVLTQSPATLSLSPGERATLSCSASSSVSYMYWYQQKPGQAPRPLIYRTSNLASGIPARFSGSGSGTDFTLTISSLEPEDFAVYYCQQYHSYFTFGGGTKVEIK
B11: SA301a LC-Y94L (antibody, V domains shown)
VH: QVQLQESGPGLVKPSQTLSLTCTVSGYSITSDYNSHWIRQPPGKGLEWIGYIHYSGSTNYNPSLKSRVTISRDTSKNQFSLKLSSVTAADTAVYYCARNYGSIYVNYFDYWGQGTLVTVSS
VL: EIVLTQSPATLSLSPGERATLSCSASSSVSYMYWYQQKPGQAPRPLIYRTSNLASGIPARFSGSGSGTDFTLTISSLEPEDFAVYYCQQYHSLPTFGGGTKVEIK
B12: SA301a LC-P95L (antibody, V domains shown)
VH: QVQLQESGPGLVKPSQTLSLTCTVSGYSITSDYNSHWIRQPPGKGLEWIGYIHYSGSTNYNPSLKSRVTISRDTSKNQFSLKLSSVTAADTAVYYCARNYGSIYVNYFDYWGQGTLVTVSS
VL: EIVLTQSPATLSLSPGERATLSCSASSSVSYMYWYQQKPGQAPRPLIYRTSNLASGIPARFSGSGSGTDFTLTISSLEPEDFAVYYCQQYHSYLTFGGGTKVEIK
B13: SA301a LC-P95E (antibody, V domains shown)
VH: QVQLQESGPGLVKPSQTLSLTCTVSGYSITSDYNSHWIRQPPGKGLEWIGYIHYSGSTNYNPSLKSRVTISRDTSKNQFSLKLSSVTAADTAVYYCARNYGSIYVNYFDYWGQGTLVTVSS
VL: EIVLTQSPATLSLSPGERATLSCSASSSVSYMYWYQQKPGQAPRPLIYRTSNLASGIPARFSGSGSGTDFTLTISSLEPEDFAVYYCQQYHSYETFGGGTKVEIK
B14: SA301a LC-Y94R (antibody, V domains shown)
VH: QVQLQESGPGLVKPSQTLSLTCTVSGYSITSDYNSHWIRQPPGKGLEWIGYIHYSGSTNYNPSLKSRVTISRDTSKNQFSLKLSSVTAADTAVYYCARNYGSIYVNYFDYWGQGTLVTVSS
VL: EIVLTQSPATLSLSPGERATLSCSASSSVSYMYWYQQKPGQAPRPLIYRTSNLASGIPARFSGSGSGTDFTLTISSLEPEDFAVYYCQQYHSRPTFGGGTKVEIK
B15: SA301a LC-Y94S (antibody, V domains shown)
VH: QVQLQESGPGLVKPSQTLSLTCTVSGYSITSDYNSHWIRQPPGKGLEWIGYIHYSGSTNYNPSLKSRVTISRDTSKNQFSLKLSSVTAADTAVYYCARNYGSIYVNYFDYWGQGTLVTVSS
VL: EIVLTQSPATLSLSPGERATLSCSASSSVSYMYWYQQKPGQAPRPLIYRTSNLASGIPARFSGSGSGTDFTLTISSLEPEDFAVYYCQQYHSSPTFGGGTKVEIK
B16: SA301a LC-Y94F (antibody, V domains shown)
VH: QVQLQESGPGLVKPSQTLSLTCTVSGYSITSDYNSHWIRQPPGKGLEWIGYIHYSGSTNYNPSLKSRVTISRDTSKNQFSLKLSSVTAADTAVYYCARNYGSIYVNYFDYWGQGTLVTVSS
VL: EIVLTQSPATLSLSPGERATLSCSASSSVSYMYWYQQKPGQAPRPLIYRTSNLASGIPARFSGSGSGTDFTLTISSLEPEDFAVYYCQQYHSFPTFGGGTKVEIK
B17: SA301a LC-Y94M (antibody, V domains shown)
VH: QVQLQESGPGLVKPSQTLSLTCTVSGYSITSDYNSHWIRQPPGKGLEWIGYIHYSGSTNYNPSLKSRVTISRDTSKNQFSLKLSSVTAADTAVYYCARNYGSIYVNYFDYWGQGTLVTVSS
VL: EIVLTQSPATLSLSPGERATLSCSASSSVSYMYWYQQKPGQAPRPLIYRTSNLASGIPARFSGSGSGTDFTLTISSLEPEDFAVYYCQQYHSMPTFGGGTKVEIK
B18: SA301a LC-Y94A (antibody, V domains shown)
VH: QVQLQESGPGLVKPSQTLSLTCTVSGYSITSDYNSHWIRQPPGKGLEWIGYIHYSGSTNYNPSLKSRVTISRDTSKNQFSLKLSSVTAADTAVYYCARNYGSIYVNYFDYWGQGTLVTVSS
VL: EIVLTQSPATLSLSPGERATLSCSASSSVSYMYWYQQKPGQAPRPLIYRTSNLASGIPARFSGSGSGTDFTLTISSLEPEDFAVYYCQQYHSAPTFGGGTKVEIK
B19: SA301a LC-Y94G (antibody, V domains shown)
VH: QVQLQESGPGLVKPSQTLSLTCTVSGYSITSDYNSHWIRQPPGKGLEWIGYIHYSGSTNYNPSLKSRVTISRDTSKNQFSLKLSSVTAADTAVYYCARNYGSIYVNYFDYWGQGTLVTVSS
VL: EIVLTQSPATLSLSPGERATLSCSASSSVSYMYWYQQKPGQAPRPLIYRTSNLASGIPARFSGSGSGTDFTLTISSLEPEDFAVYYCQQYHSGPTFGGGTKVEIK
B20: SA301a LC-Y94V (antibody, V domains shown)
VH: QVQLQESGPGLVKPSQTLSLTCTVSGYSITSDYNSHWIRQPPGKGLEWIGYIHYSGSTNYNPSLKSRVTISRDTSKNQFSLKLSSVTAADTAVYYCARNYGSIYVNYFDYWGQGTLVTVSS
VL: EIVLTQSPATLSLSPGERATLSCSASSSVSYMYWYQQKPGQAPRPLIYRTSNLASGIPARFSGSGSGTDFTLTISSLEPEDFAVYYCQQYHSVPTFGGGTKVEIK
B21: SA301a LC-Y94N (antibody, V domains shown)
VH: QVQLQESGPGLVKPSQTLSLTCTVSGYSITSDYNSHWIRQPPGKGLEWIGYIHYSGSTNYNPSLKSRVTISRDTSKNQFSLKLSSVTAADTAVYYCARNYGSIYVNYFDYWGQGTLVTVSS
VL: EIVLTQSPATLSLSPGERATLSCSASSSVSYMYWYQQKPGQAPRPLIYRTSNLASGIPARFSGSGSGTDFTLTISSLEPEDFAVYYCQQYHSNPTFGGGTKVEIK
B22: SA301a LC-T96I (antibody, V domains shown)
VH: QVQLQESGPGLVKPSQTLSLTCTVSGYSITSDYNSHWIRQPPGKGLEWIGYIHYSGSTNYNPSLKSRVTISRDTSKNQFSLKLSSVTAADTAVYYCARNYGSIYVNYFDYWGQGTLVTVSS
VL: EIVLTQSPATLSLSPGERATLSCSASSSVSYMYWYQQKPGQAPRPLIYRTSNLASGIPARFSGSGSGTDFTLTISSLEPEDFAVYYCQQYHSYPIFGGGTKVEIK

Molecular target: T1, human IL-18BP
Assay: BLI, apparent KD

Compared with B1, B2 is 5.5-fold higher in Kd: 0.23 nM for the first, 1.27 nM for the second.

B3 and B4 are within 1.5-fold of each other in Kd: 0.26 nM for the first, 0.32 nM for the second.

Compared with B5, B6 is 3.7-fold lower in Kd: 0.82 nM for the first, 0.22 nM for the second.

B7 and B8 are within 1.5-fold of each other in Kd: 0.16 nM for the first, 0.22 nM for the second.

First: B9
Second: B10
The Kd of the first is 15-fold lower: 0.13 nM for the first, 2.01 nM for the second. The first binds more tightly here.

Going from B11 to B12, the Kd rises from 0.16 nM to 2.18 nM (14-fold). The first binds more tightly here.

Compared with B13, B14 is 1.5-fold lower in Kd: 0.44 nM for the first, 0.29 nM for the second.

First: B15
Second: B16
The Kd of the first is 4.8-fold higher: 0.63 nM for the first, 0.13 nM for the second. The second binds more tightly here.

Compared with B17, B18 is 1.7-fold lower in Kd: 1.93 nM for the first, 1.15 nM for the second. The second binds more tightly here.

Going from B19 to B20, the Kd rises from 0.12 nM to 2.35 nM (20-fold). The first binds more tightly here.

Compared with B21, B22 is 1.8-fold lower in Kd: 0.22 nM for the first, 0.12 nM for the second. The second binds more tightly here.
